# Results reported in doi:10.1101/2025.02.23.639735 (bioRxiv, 2025).
# T1: 3’hExo nuclease domain (human, UniProt Q8IV48 124-349)
# T1 sequence (looked up): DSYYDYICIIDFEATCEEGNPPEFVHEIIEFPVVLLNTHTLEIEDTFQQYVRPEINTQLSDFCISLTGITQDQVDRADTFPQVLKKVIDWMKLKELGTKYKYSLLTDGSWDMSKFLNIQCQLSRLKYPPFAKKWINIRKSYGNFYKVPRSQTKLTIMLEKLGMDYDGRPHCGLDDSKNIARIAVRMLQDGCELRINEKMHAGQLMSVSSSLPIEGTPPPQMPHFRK
# T2: 3’hExofl (human, UniProt Q8IV48 1-349)
# T2 sequence (looked up): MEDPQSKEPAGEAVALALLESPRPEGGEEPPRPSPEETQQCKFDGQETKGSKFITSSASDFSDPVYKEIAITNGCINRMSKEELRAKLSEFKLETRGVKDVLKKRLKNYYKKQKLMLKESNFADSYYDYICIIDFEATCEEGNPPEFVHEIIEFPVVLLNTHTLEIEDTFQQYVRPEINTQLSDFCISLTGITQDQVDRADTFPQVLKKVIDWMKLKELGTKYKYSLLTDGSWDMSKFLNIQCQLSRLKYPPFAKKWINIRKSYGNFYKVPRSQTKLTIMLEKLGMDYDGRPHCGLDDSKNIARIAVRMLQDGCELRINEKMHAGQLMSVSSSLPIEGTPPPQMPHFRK
# B1: 3’hExo (construct of the SPR experiment not stated) (enzyme)
# chain: T2 sequence (looked up)
# B2: UPF2-AL (domain or fragment, human, UniProt Q9HAU5 1015-1106, looked up)
# chain: NDKDSKDSMTEGENLEEDEEEEEGGAETEEQSGNESEVNEPEEEEGSDNDDDEGEEEEEENTDYLTDSNKENETDEENTEVMIKGGGLKHVP
# modifications: 15N-labelled (15N/13C for the assignments) in the NMR experiments
# B3: 3’hExo SAP domain (domain or fragment, human, UniProt Q8IV48 63-124, looked up)
# chain: DPVYKEIAITNGCINRMSKEELRAKLSEFKLETRGVKDVLKKRLKNYYKKQKLMLKESNFAD
# B4: UPF2^1024-1085 (domain or fragment, human, UniProt Q9HAU5 1024-1085, looked up)
# chain: TEGENLEEDEEEEEGGAETEEQSGNESEVNEPEEEEGSDNDDDEGEEEEEENTDYLTDSNKE
# modifications: also: 15N-labelled
# Columns and labels:
# [1] = molecular target: UPF2 (construct of the SPR experiment not stated) (human); assay: SPR
# Sequence of UPF2 (construct of the SPR experiment not stated) (human) (Q9HAU5 whole entry, the tested form may be a part): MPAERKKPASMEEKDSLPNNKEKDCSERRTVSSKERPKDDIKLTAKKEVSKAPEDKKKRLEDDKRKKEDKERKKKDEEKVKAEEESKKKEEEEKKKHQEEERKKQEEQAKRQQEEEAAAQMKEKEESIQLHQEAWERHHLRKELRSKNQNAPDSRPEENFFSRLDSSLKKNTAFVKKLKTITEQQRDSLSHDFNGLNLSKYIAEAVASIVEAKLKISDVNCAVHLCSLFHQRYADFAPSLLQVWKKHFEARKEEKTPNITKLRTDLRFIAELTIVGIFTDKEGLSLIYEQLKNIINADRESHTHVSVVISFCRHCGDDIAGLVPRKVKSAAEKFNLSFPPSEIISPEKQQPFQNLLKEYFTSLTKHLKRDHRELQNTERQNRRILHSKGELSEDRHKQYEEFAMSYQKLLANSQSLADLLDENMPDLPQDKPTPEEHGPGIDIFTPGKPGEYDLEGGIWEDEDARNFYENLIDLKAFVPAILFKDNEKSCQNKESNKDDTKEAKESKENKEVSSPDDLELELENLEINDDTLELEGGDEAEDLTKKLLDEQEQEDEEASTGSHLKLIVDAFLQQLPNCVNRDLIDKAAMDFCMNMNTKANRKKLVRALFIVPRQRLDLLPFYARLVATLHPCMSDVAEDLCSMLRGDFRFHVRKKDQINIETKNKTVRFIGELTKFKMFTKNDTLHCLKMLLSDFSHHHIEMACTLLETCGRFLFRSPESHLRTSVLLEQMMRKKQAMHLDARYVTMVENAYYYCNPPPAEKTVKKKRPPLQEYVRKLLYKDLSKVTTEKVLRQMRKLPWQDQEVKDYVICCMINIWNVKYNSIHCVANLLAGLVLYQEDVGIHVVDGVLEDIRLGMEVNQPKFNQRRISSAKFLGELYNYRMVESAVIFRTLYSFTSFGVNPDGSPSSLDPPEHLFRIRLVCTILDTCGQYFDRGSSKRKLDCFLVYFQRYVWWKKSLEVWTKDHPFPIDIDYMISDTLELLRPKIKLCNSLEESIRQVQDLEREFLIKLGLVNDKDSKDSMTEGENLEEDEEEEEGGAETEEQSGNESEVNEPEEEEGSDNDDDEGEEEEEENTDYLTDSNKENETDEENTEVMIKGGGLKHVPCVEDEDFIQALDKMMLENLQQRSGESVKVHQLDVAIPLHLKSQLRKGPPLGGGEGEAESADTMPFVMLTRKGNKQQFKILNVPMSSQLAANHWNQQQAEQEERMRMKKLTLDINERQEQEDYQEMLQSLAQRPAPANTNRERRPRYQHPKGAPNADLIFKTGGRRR
# [2] = molecular target: T1, 3’hExo nuclease domain; assay: NMR titration
# [3] = molecular target: T2, 3’hExofl; assay: SEC
# [4] = molecular target: B2; assay: NMR titration
# [5] = molecular target: T2, 3’hExofl; assay: NMR titration
binder,measurement,setting,value
B1,Kd,[1],170 µM
B2,binding result,[2],binds
same,binding result,[3],binds
B3,binding result,[4],binds
B4,Kd,[5],~200 µM
